{
  "source": "patent US7108988B2",
  "about": "“Methods of identifying agents for inhibiting lentivirus replication” (priority 2001, dated 2006)",
  "key": {"[1]": {"molecular_target": "T1, CyPA (Homo sapiens, UniProt P62937)", "T1 construct": "purchased Sigma", "T1 sequence (P62937 whole entry)": "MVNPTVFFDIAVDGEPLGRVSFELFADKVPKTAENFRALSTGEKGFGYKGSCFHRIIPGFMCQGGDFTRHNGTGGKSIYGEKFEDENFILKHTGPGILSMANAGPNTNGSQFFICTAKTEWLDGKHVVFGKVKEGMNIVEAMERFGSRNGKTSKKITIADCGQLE", "test": "Surface plasmon resonance (BIAcore) binding of Vpr peptides to immobilized recombinant CyPA", "conditions": "25° C.; for binding to CyPA: peptide 1 to 250 μM, immobilized recombinant CyPA", "protocol": "Surface plasmon resonance biosensor analysis (BIAcore-Spectroscopy) was applied to analyze the molecular aspects that govern interaction of Vpr with CyPA. For the first experiment, a novel peptide comprising the first 40 residues of the Vpr protein derived from the isolate HIV-1NL4-3 was used to study the interaction with CyPA.\nSurface plasmon resonance measurements were performed at 25° C. using a BIACORE 2000 (BIAcore AB, Upsala Sweden) equipped with a CM5 research-grade sensor chip. […] The peptide Vpr^1-40 was dissolved at concentrations ranging from 1 to 250 μM in a running buffer (10 mM Hepes, 150 mM NaCl, 50 μM EDTA, 0.005% Tween 20, pH 7.4) and was injected over the flow cells containing CyPA bound to the chip matrix at a flow rate of 5 μl/min. Data were collected at a rate of 2.5 Hz during the 120 s association and dissociation phase. Vpr^1-40 interactions reached equilibrium rapidly and dissociation completely within 30 seconds. Results were corrected by the RU-values of the reference cell (without CyPA) to exclude unspecific binding of Vpr to the chip matrix. The experiment was repeated at least three times with two different charges of peptide and CyPA and reproducible results were obtained.\nSynthetic Vpr^1-40 and mutants carrying Pro to Asn exchanges at either amino acid positions 5, 10 and 14 (P^5,10,14 to N ) or at position 35 (P^35 to N) or at all four positions (P^5,10,14,35 to N) were purified to homogeneity, and tested for binding to immobilized recombinant CyPA using the same surface plasmon resonance biosensor system. […] Thus, among prolines at positions 5, 10, 14, and 35 of Vpr^1-40, only proline-35 is essential for binding to CyPA."}, "[2]": {"molecular_target": "T1, CyPA", "test": "Far-Western blot binding of Vpr to CyPA bound to nitrocellulose", "protocol": "Investigation of full length Vpr^1-96 was not possible by BIAcore as the full length Vpr protein tends to undergo self association and protein precipitation, that all together yielded false positive binding signals. As an alternative we investigated the binding of Vpr to CyPA bound to nitrocellulose.\nFor the purpose of Far-Western Blot technique, purified recombinant CyPA was separated in a 15% SDS PAGE at a concentration of ˜150 ng CyPA per lane. Proteins were electro transferred onto nitrocellulose and individual strips of this CyPA-containing Western blot were blocked for 4 hours with 3% BSA in TBS. Strips were then incubated for 12 hrs at 4° C. with the peptide Vpr^1-96 at a concentration of 1 μg/ml, CyPA strips were incubated either in the absence of any detergent, or under more stringent conditions in TBS/T containing 0.5% Triton X100™ non-ionic detergent. Finally, strips were washed tree times in TBS/T for 10 minutes and bound Vpr was identified with anti-Vpr^1-96 (polyclonal antibodies raised in rabbits) followed by anti-rabbit IgG horse radish peroxidase (HRP) conjugate and enhanced chemiluminescence (ECL) staining. As a control, the CypA binding protein, HIV-1 capsid p24 was tested in parallel."}, "[3]": {"molecular_target": "T1, CyPA", "test": "In vitro CyPA/Vpr complex formation, non-reducing SDS-PAGE and Western blot", "assay_type": "binding", "text": "[…] Proteins were separated on a 14% polyacrylamide gel in SDS (without reducing agents), by PAGE. Proteins were detected by Western blotting after transfer of the proteins from the gel to membranes. CyPA and Vpr proteins were detected using anti-Vpr and anti-CyPA antibodies (Calbiochem)."}},
  "data": [
    {"substance": "P^5,10,14 to N (MEQANEDQGNQRENHNEWTL; Vpr 1-20; UniProt P69725 1-20, looked up, variant P5N P10N P14N)", "values": [
      {"measurement": "binding to CyPA", "setting": "[1]", "value": "retained dose-dependent binding to CyPA"}
    ]},
    {"substance": "Pro-35 to Asn of Vpr^21-40: Vpr^21-40 with Pro-35 mutated to Asn", "values": [
      {"measurement": "binding to CyPA", "setting": "[1]", "value": "complete loss of CyPA binding"}
    ]},
    {"substance": "Vpr^1-20: very N-terminal fragment of Vpr", "values": [
      {"measurement": "binding to CyPA", "setting": "[1]", "value": "did not bind to CyPA"}
    ]},
    {"substance": "Vpr^1-40: peptide comprising the first 40 residues of the Vpr protein derived from the isolate HIV-1NL4-3", "values": [
      {"measurement": "time to complete dissociation from CyPA", "setting": "[1]", "value": "≤ 30", "unit": "s"},
      {"measurement": "binding to CyPA", "setting": "[1]", "value": "concentration dependent binding to CyPA"}
    ]},
    {"substance": "Vpr^1-96: full length Vpr peptide", "values": [
      {"measurement": "binding to CyPA (Far-Western)", "setting": "[2]; 1 μg/ml peptide, absence of detergent", "value": "binds to CyPA"},
      {"measurement": "binding to CyPA (Far-Western)", "setting": "[2]; presence of 0.5% TritonX100 non-ionic detergent", "value": "low affinity"},
      {"measurement": "binding to CyPA (Far-Western)", "setting": "[2]; presence of 0.5% TritonX100 non-ionic detergent, listed as Vpr", "value": "reduced"},
      {"measurement": "complex formation with CyPA", "setting": "[3]; 1 μg each, 22° C., 12 hours, no reducing agent", "value": "formation of a novel approximately 29 kDa product"},
      {"measurement": "complex formation with CyPA", "setting": "[3]; with reducing agent (β-mercaptoethanol)", "value": "loss of the Vpr/CyPA complex"}
    ]},
    {"substance": "Vpr^21-40: smaller fragment of Vpr", "values": [
      {"measurement": "binding to CyPA", "setting": "[1]", "value": "strong and dose-dependent binding to CyPA"}
    ]}
  ]
}
